Read-outs that look alike come from different tables or passages of the source. Blank lines part the entries; values can stand above or below the binder they belong to. Ends that are not written are not given here.
B2: TCE-32 (bispecific antibody)
light: DIQLTQSPSSLSASVGDRVSITCKASQDVSIAVAWYQQKPGKAPKLLIYSASYRYTGVPDRFSGSGSGTDFTLTISSLQPEDFAVYYCQQHYITPLTFGAGTKVEIKRTVAAPSVFIFPPSDEQLKSGTASVVCLLNNFYPREAKVQWKVDNALQSGNSQESVTEQDSKDSTYSLSSTLTLSKADYEKHKVYACEVTHQGLSSPVTKSFNRGEC
heavy: not shown
notes: anti-CD3 scFv F240A; anti-TROP2 Fab F108A
B3: TCE-29 (bispecific antibody)
light: DIQLTQSPSSLSASVGDRVSITCKASQDVSIAVAWYQQKPGKAPKLLIYSASYRYTGVPDRFSGSGSGTDFTLTISSLQPEDFAVYYCQQHYITPLTFGAGTKVEIKRTVAAPSVFIFPPSDEQLKSGTASVVCLLNNFYPREAKVQWKVDNALQSGNSQESVTEQDSKDSTYSLSSTLTLSKADYEKHKVYACEVTHQGLSSPVTKSFNRGEC
heavy: not shown
notes: anti-CD3 scFv wt; anti-TROP2 Fab F108A

Tests used:
TCE-19 = molecular target: T1, TCE-19; test: competition ELISA, peptide titrated vs TCE binding to captured CD3
T1 construct: anti-CD3 scFv W233A; anti-TROP2 Fab wt; also called 3091

TCE-24 = molecular target: T2, TCE-24; test: as above
T2 construct: anti-CD3 scFv W238A; anti-TROP2 Fab wt; also called 3096

TCE-15 = molecular target: T3, TCE-15; test: as above
T3 construct: anti-CD3 scFv W112A; anti-TROP2 Fab wt; also called 3087

TROP2 [1] = molecular target: T4, TROP2 (human, UniProt P09758 27-274, limits assumed, biotinylated (site not stated)); test: ELISA, biotinylated TROP2 captured on neutravidin coated plates, HRP secondary antibody, OD 450 nm
T4 construct: also called TROP2-biotin; tumor-associated calcium signal transducer 2
T4 sequence (looked up): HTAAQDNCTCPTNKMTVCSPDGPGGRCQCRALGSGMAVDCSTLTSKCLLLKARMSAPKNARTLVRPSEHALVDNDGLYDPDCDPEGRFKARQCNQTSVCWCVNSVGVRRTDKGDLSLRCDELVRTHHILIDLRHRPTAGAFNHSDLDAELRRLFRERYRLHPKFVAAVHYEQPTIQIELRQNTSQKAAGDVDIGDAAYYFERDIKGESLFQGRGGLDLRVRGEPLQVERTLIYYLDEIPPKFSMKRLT

CD3ε [2] = molecular target: T5, CD3ε (human, UniProt P07766 23-126, limits assumed, biotinylated (site not stated)); test: ELISA, biotinylated CD3 captured on neutravidin coated plates, HRP secondary antibody, OD 450 nm
T5 construct: also called CD3-biotin; CD3E

TROP2 [3] = molecular target: T4, TROP2; test: ELISA, biotinylated TROP2 captured on neutravidin coated plates, HRP secondary antibody, OD 450 nm; remark: listed apart in the source
TROP2 [4] = molecular target: T4, TROP2; test: as above; remark: listed apart in the source
CD3ε [5] = molecular target: T5, CD3ε; test: ELISA, biotinylated CD3 captured on neutravidin coated plates, HRP secondary antibody, OD 450 nm; remark: listed apart in the source
human CD3ε-biotin [6] = molecular target: T6, human CD3ε-biotin (human, UniProt P07766 23-126, limits assumed, biotinylated (site not stated)); test: ELISA, biotinylated CD3ε on neutravidin plates
T6 construct: also called CD3E-bio; CD3E-biotin

human CD3ε-biotin [7] = molecular target: T6, human CD3ε-biotin; test: BLI (Octet), summary table
human CD3ε-biotin [8] = molecular target: T6, human CD3ε-biotin; test: Human CD3 binding ELISA, TCE titrated
Cyno CD3 = molecular target: T7, Cyno CD3 (Antigen was biotinylated for capture on the plate (per card); site of biotin and any vendor tag not stated in the passages seen.); test: Cyno CD3 binding ELISA, TCE titrated
T7 construct: also called cynomolgus CD3
T7 chain: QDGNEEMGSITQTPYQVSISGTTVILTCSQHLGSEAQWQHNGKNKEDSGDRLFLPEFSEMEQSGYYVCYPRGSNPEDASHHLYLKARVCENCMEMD

human CD3ε-biotin [9] = molecular target: T6, human CD3ε-biotin; test: ELISA, biotinylated CD3ε captured on neutravidin plate, TCE titrated; table row head prints EC50 without a unit, unit taken from the axis Log [TCE nM]
human CD3ε-biotin [10] = molecular target: T6, human CD3ε-biotin; test: ELISA, biotinylated CD3ε captured on neutravidin plate, TCE titrated
human CD3ε-biotin [11] = molecular target: T6, human CD3ε-biotin; test: as above; remark: listed apart in the source
human TROP2-biotin [12] = molecular target: T8, human TROP2-biotin (human, UniProt P09758 27-274, limits assumed, biotinylated (site not stated)); test: ELISA, biotinylated TROP2 captured on neutravidin plate, TCE titrated; table row head prints EC50 without a unit, unit taken from the axis Log [TCE nM]
T8 construct: also called hTROP2-Biotin; Biotinylated TROP2
T8 sequence (looked up): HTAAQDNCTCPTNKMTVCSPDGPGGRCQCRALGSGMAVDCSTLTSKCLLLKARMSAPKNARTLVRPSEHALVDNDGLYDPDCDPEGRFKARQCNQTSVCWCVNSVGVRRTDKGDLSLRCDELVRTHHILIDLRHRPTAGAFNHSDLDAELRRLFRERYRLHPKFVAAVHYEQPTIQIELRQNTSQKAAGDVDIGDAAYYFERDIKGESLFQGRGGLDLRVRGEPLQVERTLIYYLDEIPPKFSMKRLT

TROP2 [13] = molecular target: T4, TROP2; test: ELISA, biotinylated TROP2 captured on neutravidin coated plates, HRP secondary antibody, OD 450 nm; remark: listed apart in the source
CD3ε [14] = molecular target: T5, CD3ε; test: ELISA, biotinylated CD3 captured on neutravidin coated plates, HRP secondary antibody, OD 450 nm; remark: listed apart in the source
human CD3ε-biotin [15] = molecular target: T6, human CD3ε-biotin; test: BLI (Octet), human CD3-biotin 10 nM on sensor, 50 nM TCE
human TROP2-biotin [16] = molecular target: T8, human TROP2-biotin; test: BLI (Octet), human TROP2-biotin 10 nM on sensor, 50 nM TCE
TCE-30 = molecular target: T9, TCE-30; test: competition ELISA, peptide titrated vs TCE binding to captured CD3
T9 construct: anti-CD3 scFv H101A; anti-TROP2 Fab F108A

TCE-32 = molecular target: B2; test: as above
TCE-33 = molecular target: T10, TCE-33; test: as above
T10 construct: anti-CD3 scFv with P41S; E227D set of mutations; anti-TROP2 Fab F108A

TCE-29 = molecular target: B3; test: as above

B1: Peptide-11 (peptide)
peptide: GSACLGPEWEVCPY
modifications: cysteine pairing not given here; also: biotinylated when captured in ELISA
notes: also called 1596
IC50 (TCE-19): > 100000 nM
IC50 (TCE-24): > 100000 nM
IC50 (TCE-15): > 100000 nM

Binder: B2
EC50 (read off the curve) (TROP2 [1]): ~0.7 nM
EC50 (read off the curve) (CD3ε [2]): ~0.6 nM

Binder: B3
EC50 (read off the curve) (TROP2 [3]): ~0.9 nM
EC50 (read off the curve) (TROP2 [4]): ~2 nM

B5: TCE-26 (anti-CD3 scFv F240A; anti-TROP2 HC wt) (bispecific antibody)
light: DIQLTQSPSSLSASVGDRVSITCKASQDVSIAVAWYQQKPGKAPKLLIYSASYRYTGVPDRFSGSGSGTDFTLTISSLQPEDFAVYYCQQHYITPLTFGAGTKVEIKRTVAAPSVFIFPPSDEQLKSGTASVVCLLNNFYPREAKVQWKVDNALQSGNSQESVTEQDSKDSTYSLSSTLTLSKADYEKHKVYACEVTHQGLSSPVTKSFNRGEC
heavy: not shown
notes: scFv-Fab; the entry already carries the mutation; also called 3098
EC50 (human CD3ε-biotin [6]): 0.6 nM
CD3 t1/2 (human CD3ε-biotin [7]): 39 s

B10: Peptide-12 (peptide)
peptide: YLCGPDADETLACY
modifications: cysteine pairing not given here; also: biotinylated when captured in ELISA
IC50 (TCE-30): > 100000 nM
IC50 (TCE-32): > 100000 nM

B11: Peptide-13 (peptide)
peptide: YLCGPDTDETLACY
modifications: cysteine pairing not given here; also: biotinylated, site not given here
IC50 (TCE-33): > 100000 nM
IC50 (TCE-30): > 100000 nM
IC50 (TCE-29): > 100000 nM
IC50 (TCE-32): > 100000 nM

Second part, the binder after the results:

EC50 (read off the curve) (CD3ε [5]): ~0.6 nM
EC50 (read off the curve) (TROP2 [4]): ~2 nM
B4: TCE-34 (bispecific antibody)
light: DIQLTQSPSSLSASVGDRVSITCKASQDVSIAVAWYQQKPGKAPKLLIYSASYRYTGVPDRFSGSGSGTDFTLTISSLQPEDFAVYYCQQHYITPLTFGAGTKVEIKRTVAAPSVFIFPPSDEQLKSGTASVVCLLNNFYPREAKVQWKVDNALQSGNSQESVTEQDSKDSTYSLSSTLTLSKADYEKHKVYACEVTHQGLSSPVTKSFNRGEC
heavy: not shown
notes: anti-CD3 scFv N30Q, I109V, G172A, V231A; anti-TROP2 Fab F108A

EC50 (human CD3ε-biotin [8]): 0.531 nM
EC50 (Cyno CD3): 0.482 nM
EC50 (human CD3ε-biotin [9]): 0.938 nM
B6: TCE-32 (anti-CD3 scFv F240A; anti-TROP2 (F108A) HC) (bispecific antibody)
light: DIQLTQSPSSLSASVGDRVSITCKASQDVSIAVAWYQQKPGKAPKLLIYSASYRYTGVPDRFSGSGSGTDFTLTISSLQPEDFAVYYCQQHYITPLTFGAGTKVEIKRTVAAPSVFIFPPSDEQLKSGTASVVCLLNNFYPREAKVQWKVDNALQSGNSQESVTEQDSKDSTYSLSSTLTLSKADYEKHKVYACEVTHQGLSSPVTKSFNRGEC
heavy: not shown
notes: scFv-Fab; the entry already carries the mutations

EC50 (human CD3ε-biotin [8]): 0.382 nM
EC50 (human CD3ε-biotin [10]): 0.376 nM
EC50 (Cyno CD3): 0.354 nM
EC50 (human CD3ε-biotin [11]): 0.356 nM
B7: TCE-34 (anti-CD3 scFv, several mutations; anti-TROP2 (F108A) HC) (bispecific antibody)
light: DIQLTQSPSSLSASVGDRVSITCKASQDVSIAVAWYQQKPGKAPKLLIYSASYRYTGVPDRFSGSGSGTDFTLTISSLQPEDFAVYYCQQHYITPLTFGAGTKVEIKRTVAAPSVFIFPPSDEQLKSGTASVVCLLNNFYPREAKVQWKVDNALQSGNSQESVTEQDSKDSTYSLSSTLTLSKADYEKHKVYACEVTHQGLSSPVTKSFNRGEC
heavy: not shown
notes: as for B6

EC50 (human TROP2-biotin [12]): 0.893 nM
EC50 (read off the curve) (TROP2 [13]): ~0.7 nM
EC50 (read off the curve) (CD3ε [14]): ~0.6 nM
B8: TCE-37 (bispecific antibody)
light: DIQLTQSPSSLSASVGDRVSITCKASQDVSIAVAWYQQKPGKAPKLLIYSASYRYTGVPDRFSGSGSGTDFTLTISSLQPEDFAVYYCQQHYITPLTFGAGTKVEIKRTVAAPSVFIFPPSDEQLKSGTASVVCLLNNFYPREAKVQWKVDNALQSGNSQESVTEQDSKDSTYSLSSTLTLSKADYEKHKVYACEVTHQGLSSPVTKSFNRGEC
heavy: not shown
notes: anti-CD3 scFv F104A; anti-TROP2 Fab D109A

Kd (human CD3ε-biotin [15]): 0.467 nM
Kd (human TROP2-biotin [16]): 1.22 nM
B9: TCE-33 (anti-CD3 scFv, several mutations; anti-TROP2 (F108A) HC) (bispecific antibody)
light: DIQLTQSPSSLSASVGDRVSITCKASQDVSIAVAWYQQKPGKAPKLLIYSASYRYTGVPDRFSGSGSGTDFTLTISSLQPEDFAVYYCQQHYITPLTFGAGTKVEIKRTVAAPSVFIFPPSDEQLKSGTASVVCLLNNFYPREAKVQWKVDNALQSGNSQESVTEQDSKDSTYSLSSTLTLSKADYEKHKVYACEVTHQGLSSPVTKSFNRGEC
heavy: EVQLVESGGGLVQPGGSLKLSCAASGFTFNKYAMNWVRQASGKGLEWVGRIRSKYNNYATYYADSVKDRFTISRDDSKNTAYLQMNSLKTEDTAVYYCVRHGNFGNSYISYWAYWGQGTLVTVSSGGGGSGGGGSGGGGSQTVVTQEPSFSVSPGGTVTLTCRSSTGAVTSGNYANWVQQTPGQAPRGLIGGTKFLAPGVPDRFSGSILGNKAALTITGAQADDESDYYCVLWYSNRWVFGGGTKLTVLGGGGSQVQLQQSGSELKKPGASVKVSCKASGYTFTNYGMNWVKQAPGQGLKWMGWINTYTGEPTYTDDFKGRFAFSLDTSVSTAYLQISSLKADDTAVYFCARGGFGSSYWYADVWGQGSLVTVSSASTKGPSVFPLAPSSKSTSGGTAALGCLVKDYFPEPVTVSWNSGALTSGVHTFPAVLQSSGLYSLSSVVTVPSSSLGTQTYICNVNHKPSNTKVDKKVEPKSC
notes: as for B6
